Data taken from the RNAGym collection of RNA variant scans (doi:10.7554/elife.90254).

B1: OR4K15 (parent)
chain: GUUAACGGUCAUAGGCCAUGGAAACUAGGAGCACCAUUUCGCUGCCAGUGAAGAAAUGAACAAAGAAAAUCUGGGCCAGGCAGGCAUCAAAAGAAAUAGUCUUGCGCUCAACCAGAAAGUCUGUAAUCAUUUUAAGGGUA

Variants of: B1
Test: self-cleavage, relative activity (ratio to wild type); higher = more cleavage; in vitro, sequencing; the parent is a self-cleaving ribozyme

First: GUUAACGGUCAUAGGCCAUGGAAGCUAGGAGCACCAUUUCGCUGCCAGUGAAGAAAUGAACAAAGAAAAUCUGGGCCAGGCAGGCAUCAAAAGAAAUAGCCUUGCGCUCAACCAGAAAGUCUGUAAUCAUUUUAAGGGUA
Second: GUUAACAGUCAUAGGCCAUGGAAACUAGGAGCACCAUUUCGCUGCCAGUGAAGAAAUGAACAAAGAAAAUCUGGGCCAGGCAGGCAUCAAAAGAAAUAGCCUUGCGCUCAACCAGAAAGUCUGUAAUCAUUUUAAGGGUA
The self-cleavage of the first is lower: 1.97 for the first, 2.22 for the second.

Compared with UUUAACGGUCAUAGGCCAUGGAAACUAGGAGCACCAUUUCGCUGCCAGUGAAGAAAUGAACAAAGAAAAUCUGGGCCAGGCAGGCACCAAAAGAAAUAGUCUUGCGCUCAACCAGAAAGUCUGUAAUCAUUUUAAGGGUA, GUUAACGGUCAUAGGCCAUGGAAACUAGGAACACCAUUUCGCUGCCAGUGGAGAAAUGAACAAAGAAAAUCUGGGCCAGGCAGGCAUCAAAAGAAAUAGUCUUGCGCUCAACCAGAAAGUCUGUAAUCAUUUUAAGGGUA is higher in self-cleavage: 0.27 for the first, 1.64 for the second.

First: GUUAACGGACAUAGGCCAUGGAAACUAGGAGCACCAUUUCGCUGCCAGUGAAGAAAUGAACAAAGAAAAUCCGGGCCAGGCAGGCAUCAAAAGAAAUAGUCUUGCGCUCAACCAGAAAGUCUGUAAUCAUUUUAAGGGUA
Second: GUUAACGGUCAUAGGCCAUGGAAACUAGGAGCACCAUUUCGCUGCCAGUGAAGAAAUGAACAAAGAAAAUCUGGGCCGGGCAGGCAUCACAAGAAAUAGUCUUGCGCUCAACCAGAAAGUCUGUAAUCAUUUUAAGGGUA
The self-cleavage of the first is higher: 0.16 for the first, 0.12 for the second.

First: GUUAACGGUCAUAGGCCAUGGAAACUAGGAGCACCACUUCGCUGCCAGUGAAGAAAUGAACAAAGAAAAUCUGGGCCAGGCAGGCAUCAAAAGAAAUAGUCUUGCGCUCAACCAGAAAGUCUGUAAUCAAUUUAAGGGUA
Second: GUUAACGGUCAUAGGCCAUGGAAACUAGGAGCACCAUUUCGCUGCCAGUGAAGAAAUGAACAAAGAAAAUCUGGGCCAGGCAGGCAUCAAAGGAAAUAGUCUUGCGCUCAACCAGAAAGUCUGUAAUCAUUGUAAGGGUA
The self-cleavage of the first is lower: 0.91 for the first, 1.04 for the second.

Going from GUUAACGGUCAUAGGCCAUGGAGACUAGGAGCACCAUUUCGCUGCCAGUGAAGAAAUGAACAAAGAAAAUCUGGGCCAGGCAGGCAUCAAAAGUAAUAGUCUUGCGCUCAACCAGAAAGUCUGUAAUCAUUUUAAGGGUA to GUUAACGGUCAUAGGCCAUGGAAACUAGGAGCUCCAUUUCGCUGCCAGUGAAGAAAUGAUCAAAGAAAAUCUGGGCCAGGCAGGCAUCAAAAGAAAUAGUCUUGCGCUCAACCAGAAAGUCUGUAAUCAUUUUAAGGGUA, the self-cleavage rises from 1.54 to 1.68.

Going from GUUAACGGUCAUAGGCCAUGGAAACUAGGAGCACCAUUUCGCUGCCAGUGAAGAAAUGAACAAAGAAAGUCUGGGCCAGGCAGGCAUCAAAAGAAAUAGUCUUGCGCUCAACCAGAAAGUCUGUAAUCAUUCUAAGGGUA to GUUAACGGUCAUAGGCCAUGGAAACUAGGAGCACCAUUUCGCUGCCAGUGAAGAAAUGAACAAAGAAAAUCUGGGCCAGGGAGGCAUCAAAAGAAAUAGUCUUGCGCUCAACCAGAAAGUCUGUAAUCAUUUUAAGGGUA, the self-cleavage falls from 1.56 to 0.2.

Going from GUUAAUGGUCAUAGGCCAUGGAAACUAGGAGCACCAUUUCGCUGACAGUGAAGAAAUGAACAAAGAAAAUCUGGGCCAGGCAGGCAUCAAAAGAAAUAGUCUUGCGCUCAACCAGAAAGUCUGUAAUCAUUUUAAGGGUA to GUUAACGGUCAUAGGCCAUGGAAACUAGGAGCACCAUUUCGCUGCCAGUGAAGAAAUGAACAAAGAAAAUCUGGGCCAGGCAGGCAUCAAAAGAAAUAGUCUUGCGCUCAACCAGAAAGUAUGUAGUCAUUUUAAGGGUA, the self-cleavage rises from 1.31 to 1.78.

First: GGCAACGGUCAUAGGCCAUGGAAACUAGGAGCACCAUUUCGCUGCCAGUGAAGAAAUGAACAAAGAAAAUCUGGGCCAGGCAGGCAUCAAAAGAAAUAGUCUUGCGCUCAACCAGAAAGUCUGUAAUCAUUUUAAGGGUA
Second: GUUAACGGUCAUAGGCCAUGGAAACUAGGAGCACCAUUUCGCUGCCAGUGAAGAUUUGAACAAAGAAAAUCUGGGCCAGGCAGGCAUCAAAAGAAAUAGUCUUGCGCUCAACCAGAAAGUCUGUAAUCAUUUUAAGGGUA
The self-cleavage of the first is higher: 1.11 for the first, 0.55 for the second.

First: GUUAACGGUCAUAGGCCAUGGAAACUAGGAGCACCAUUUCGCUGCCAGUGAAGAAAUGAACUAAGAAAAUCUGGGCCAGGCAGGCAUCAAAAGAAAUAGUCUUGCGCUCUACCAGAAAGUCUGUAAUCAUUUUAAGGGUA
Second: GUUAACGGUCACAGGCCAUGGAAACUAGGAGCACCAUUUCGCUGCCAGUGAAGAAAUGAACAAAGAAAAUCUGGGCCAGGCAGGCAUCAAAAGAAAUAGUCUUGCGCUCAACCAGAAAGUCUGUACUCAUUUUAAGGGUA
The self-cleavage of the first is higher: 1.27 for the first, 0.42 for the second.

Compared with GUUAACGGUCAUAGGCCAUGGAAGCUAGGAGCACCAUUUCGCUGCCAGUGAAGAAAUGAACAAAGAAAAUCUGGGCCGGGCAGGCAUCAAAAGAAAUAGUCUUGCGCUCAACCAGAAAGUCUGUAAUCAUUUUAAGGGUA, GUUAACGGUCAUAGGCCAUGCAAACUAGGAGCACCAUUUCGCUGCCAGUGAAGAAAUGAACAAAGAAAAUCUGGGCCAGGCAGGCAUCAAAAGAAAUAGUCCUGCGCUCAACCAGAAAGUCUGUAAUCAUUUUAAGGGUA is higher in self-cleavage: 0.21 for the first, 2.26 for the second.

Going from GUUAACGGUUAUAGGCCAUGGAAACUAGGAGCACCAUUUCGCUGCCAGUGAAGAAAUGAACAAAGAAAAUCUGGGCCGGGCAGGCAUCAAAAGAAAUAGUCUUGCGCUCAACCAGAAAGUCUGUAAUCAUUUUAAGGGUA to GUUAACGGUCAUAGGCCAUGGAAACUAGGAGCACCAUUUCGCUGCCAGUGAGGAAAUGAACAAAGAAAAUCUGGGCCAGGCUGGCAUCAAAAGAAAUAGUCUUGCGCUCAACCAGAAAGUCUGUAAUCAUUUUAAGGGUA, the self-cleavage rises from 0.1 to 0.2.

First: GUUAACGGUCAUAGGCCAUGGAAACUAGGGGCACCAUUUCGCUGCCAGUGAAGAAAUGAACAAAGAAAAUCUGGGCCAGGCAGGCAUCAAAAGAAAUAGUCUUGCGCUCAACCAGAAAGUCUGCAAUCAUUUUAAGGGUA
Second: GUUAACGGUCAUAGGCCAUGGAAACUAGGAGCACCAUUUCGCUGCCAGUGAAGAAAUGAACAAAGAGAAUCUGGGCCAGGCAGGCAUCAAAAGAAAUAGCCUUGCGCUCAACCAGAAAGUCUGUAAUCAUUUUAAGGGUA
The self-cleavage of the first is lower: 0.74 for the first, 2.32 for the second.

Going from GUUAACGGUCAUAGGCCAUGGAAACUAGGAGCACCAUUCCGCUGCCAGUGAAGAAAUGAACAAAGAAAAUCUGGGCCAGGCAGGCAUCAAAAGAAAUAAUCUUGCGCUCAACCAGAAAGUCUGUAAUCAUUUUAAGGGUA to GUUAACGGUCAUAGGCCAUGGAAACUAGGAGCACCAUUUCGCUGCCAGUGAAGAAAUGAACAAAGAAAAUCUGGGCCAAGCAGGCAUCAAAAGAAAUAGUCUUGCGCUCAACCAGAAAGGCUGUAAUCAUUUUAAGGGUA, the self-cleavage falls from 0.3 to 0.11.

Compared with GUUAACGGUCAUAGGCCAUAGAAACUAGGAGCACCAUUUCGCUGCCAGUGAAGAAAUGAACGAAGAAAAUCUGGGCCAGGCAGGCAUCAAAAGAAAUAGUCUUGCGCUCAACCAGAAAGUCUGUAAUCAUUUUAAGGGUA, GUUAACGGUCAUAGGCCAUGGAAACUAGGAGCACCAUUUCGCUGCCAGUGAAGAAAUGAACAAAGAAAAUCUGGGCCAGGCAGGCAUCAAAAGAAAUAGUCUUGCGGUCAACCAGAAGGUCUGUAAUCAUUUUAAGGGUA is lower in self-cleavage: 1.45 for the first, 0.01 for the second.

First: GUUAACGGUCAUAGGCCAUGGAAACUAGGAGCACCAUAUCGCUGCCAGUGAAGAAAUGAACAAAGAAAAUCUGGGCCAGGCAGGCAUCGAAAGAAAUAGUCUUGCGCUCAACCAGAAAGUCUGUAAUCAUUUUAAGGGUA
Second: GUUAACGGUCAUAGGCCAUGGAAACUAGGAGCACCAUUACGCUGCCAGUGAAGAAAUGAACGAAGAAAAUCUGGGCCAGGCAGGCAUCAAAAGAAAUAGUCUUGCGCUCAACCAGAAAGUCUGUAAUCAUUUUAAGGGUA
The self-cleavage of the first is higher: 2.67 for the first, 1.21 for the second.

Compared with GUUAACGGUCAUAGGCCAUGGGAACUAGGAGCACCAUUUCGCUGCCAGUGAGGAAAUGAACAAAGAAAAUCUGGGCCAGGCAGGCAUCAAAAGAAAUAGUCUUGCGCUCAACCAGAAAGUCUGUAAUCAUUUUAAGGGUA, GUUAACGGUCAUAGGCCAUGGAAACUAGGAGCACCAUUUCGCUGCCAGUGAAGAAAUGAACAAAGAAAAUCUGGGCCAGGCAGGCAUCAAAAGAAAUAGUCUUGCGCUCAACCAGAAAGGCCGUAAUCAUUUUAAGGGUA is higher in self-cleavage: 0.91 for the first, 1.08 for the second.

First: GUUAACGGUCAUAGGCCAUGGAAACUAGGAGCACCAUUUCGCUGCCAGUGAAGAAAUGAACAAAGAAAAUCUGGGCCAGGCAGGCAUCAAAAGAAAUAGUCUUGCGCUCAACCAGCAAGUCUGUAAUCAUUUCAAGGGUA
Second: GUUAACGGUCAUAGGCCAUGGAAACUAGGAGCACCAUUUCGCUGCCAGAGCAGAAAUGAACAAAGAAAAUCUGGGCCAGGCAGGCAUCAAAAGAAAUAGUCUUGCGCUCAACCAGAAAGUCUGUAAUCAUUUUAAGGGUA
The self-cleavage of the first is lower: 0.28 for the first, 0.3 for the second.

First: GUUAACGGUCAUAGGCCAUGGAGACUAGGAGCUCCAUUUCGCUGCCAGUGAAGAAAUGAACAAAGAAAAUCUGGGCCAGGCAGGCAUCAAAAGAAAUAGUCUUGCGCUCAACCAGAAAGUCUGUAAUCAUUUUAAGGGUA
Second: GUUAACGGUCAUAGGCCAUGGAAACUAGGAGCACCAUUUCGCUGCCAGUGAAGAAAUGAACAAAGAAAUUCUGGGCCAGGCAGGCAUCAAAAGAAAUAGUCUUGCGCUCAACCAGAAAGUCUGUAAUCAUUUUAAGGGUU
The self-cleavage of the first is lower: 1.9 for the first, 2.31 for the second.

Going from GUUAACGGUCAUAGGCCAUGGAAACUAGGAGCACCAUUUCGCUGCCAGUGAAGAAAUGGACAAAGAAAAUCUGGGCCAGGCAGGCAUCAAAAGAAAUAGUCUUGCGCACAACCAGAAAGUCUGUAAUCAUUUUAAGGGUA to GUUAACGGUCAUAGGCCAUGGAAACUAGGAGCACCAUUACGCUGCCAGUGAAGAAAUGAACAAAGAAAAUCUGGGCCAGGCAGGCAUCAAAAGAAAUAGUCUUGCGCUCUACCAGAAAGUCUGUAAUCAUUUUAAGGGUA, the self-cleavage rises from 0.01 to 2.06.

First: GUUAACGGUCAUAGGCCAUGGAAACUAGGAGCACCAUUUCGCUGCCAGUGAAGAAAUGAACAAAGAAAAUCUGGGCCAGGCGGGCAACAAAAGAAAUAGUCUUGCGCUCAACCAGAAAGUCUGUAAUCAUUUUAAGGGUA
Second: GUUAACGGUCAUAGGCCAUGGAAACUAGGAGCACCAUUUCGCUGCCAGUGAAGAAAUGAACAAAGAAAAUCUGGGCCUGGCAGGCAUCAAAAGAAAUAGUCUUGCGCUCAACCAGAAAGUCUGUAAUCAUUUUAAGGGUA
The self-cleavage of the first is lower: 0.32 for the first, 0.36 for the second.

GUUAACGGUCAUAGGCCAUGGCAACUAGGGGCACCAUUUCGCUGCCAGUGAAGAAAUGAACAAAGAAAAUCUGGGCCAGGCAGGCAUCAAAAGAAAUAGUCUUGCGCUCAACCAGAAAGUCUGUAAUCAUUUUAAGGGUA gave a self-cleavage of 1.
